{"source": "patent US20250277200", "key": {"C5a": {"system": "T1, C5a", "T1 sequence": "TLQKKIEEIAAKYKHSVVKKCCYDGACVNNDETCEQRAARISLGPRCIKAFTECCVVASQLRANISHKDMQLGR"}}}
{"substance": "CPN1-HSA", "values": [{"measurement": "% Cleavage (GPCR assay, purified enzyme)", "setting": "C3a", "value": 100, "unit": "%"}, {"measurement": "% Cleavage (GPCR assay, supernatant)", "setting": "C3a", "value": 100, "unit": "%"}, {"measurement": "Kcat/KM (Arg LC-MS/MS, purified enzyme)", "setting": "C3a", "value": 800000, "unit": "M⁻¹ s⁻¹"}, {"measurement": "% Cleavage (GPCR assay, purified enzyme)", "setting": "C5a", "value": 82, "unit": "%"}, {"measurement": "% Cleavage (GPCR assay, supernatant)", "setting": "C5a", "value": 97, "unit": "%"}]}
